Assay results published in US20040198656A1, “Methods of screening molecules that are used to prevent cardiovascular diseases” (priority 2001, published 2004).

Columns and labels:
Assay type in all cases: in vivo
[1] = Triglyceride levels in AA4RP transgenic mice on a lipid-rich diet
Protocol: Samples from AA4RP transgenic mice or control mice maintained on a lipid-rich diet were diluted 1/3 or 1/5in physiological serum, then assayed for triglycerides against a calibration curve prepared with CFAS lipid calibrator, Ref. 759350 (Boehringer Mannheim GmbH, Germany). The calibration curve covered a concentration range of 16 to 500 μg/ml. 100 μl of each sample dilution or calibration point were deposited in each well of a 96-well titration plate. Next, 200 μl of triglyceride reagent Ref. 701912 (Boehringer Mannheim GmbH, Germany) were added to each well and the plate was incubated at 37° C. for 30 min. Optical densities (OD) were read on a spectrophotometer set at 492 nm. Triglyceride concentrations in each sample were calculated from a standard curve plotted as a linear equation y=ax+b, where y represents OD and x represents triglyceride concentration.

apo CIII = assay: Apo CIII assay by immuno-nephelometry in mice overexpressing human AA4RP; settings: AA4RP transgenic mice, lipid-rich diet
Protocol: Apo CIII in mice overexpressing human AA4RP was assayed by immuno-nephelometry on an ARRAY® immunochemistry system (Beckman Coulter, Villepinte, France). Pooled sera from normolipidic mice were used as standard; the apo CIII concentration therein was 25 μg/ml. A calibration curve from 4 μg/ml to 25 μg/ml was prepared by diluting the standard in 0.01 M potassium phosphate pH 7.2.
Plasma samples from mice overexpressing human AA4RP or not, maintained on a lipid-rich diet, and plasma samples from knock out homozygous (−/−), heterozygous (+/−) or wild type (+/+) mice were diluted 1/6 or 1/12 in the same conditions as the standard. Forty-two microliters of each calibration point and each sample from the different mice under study were incubated with 42 μl of mouse anti-apo CIII (in a reaction cell containing polyethylene glycol (PEG)). The apo CIII concentration in the sample is directly proportional to the light intensity reflected by the precipitate formed during the antigen-antibody reaction.

[2] = Triglyceride distribution in VLDL, LDL and HDL (Superose 6 FPLC) of plasma; settings: AA4RP transgenic mice versus control mice, plasma fractions
Protocol: The distribution of triglycerides in VLDL, LDL and HDL was studied on 200 μl fractions of plasma from AA4RP transgenic mice or control mice maintained on a lipid-rich diet.
The different particles were fractionated on a Pharmacia Superose 6 column integrated in an AKTA FPLC system (Pharmacia Biotech, Umeå, Sweden). The different fractions were eluted with 0.01 M PBS, 0.1 M NaCl, pH 7.2 at a flow rate of 0.2 ml/min. The triglyceride concentration in each fraction was determined as described hereinabove.

total lipase = assay: Total lipase activity in post-heparin plasma (radiolabelled triolein, apo CII); settings: human AA4RP transgenic mice, FVB/N background
Protocol: (§1) The test was carried out on post-heparin plasma (collected 5 min after heparin injection) from transgenic mice and control mice with a FVB/N genetic background. Total lipase activity was determined by incubation with radiolabelled triolein and in the presence of a cofactor (apo CII). HL activity was determined after incubation of each plasma sample with triolein but in this case in the absence of apo CII and in the presence of 1 M NaCl to eliminate LpL activity. Lipase activity in each plasma sample was then calculated by determining the number of moles of free fatty acid. Finally, LpL activity was calculated by subtracting HL activity from total lipase activity.

HL = HL activity in post-heparin plasma (triolein, no apo CII, 1 M NaCl); settings: human AA4RP transgenic mice, FVB/N background
Protocol: as §1

LpL = LpL activity in post-heparin plasma (total lipase minus HL); settings: human AA4RP transgenic mice, FVB/N background
Protocol: as §1

B1: AA4RP: Protein of 366 amino acids (SEQ ID NO 1), apolipoprotein AIV related protein; overexpressed in transgenic mice (protein, listed as Homo sapiens)
chain: MASMAAVLTWALALLSAFSATQARKGFWDYFSQTSGDKGRVEQIHQQKMAREPATLKDSLEQDLNNMNKFLEKLRPLSGSEAPRLPQDPVGMRRQLQEELEEVKARLQPYMAEAHELVGWNLEGLRQQLKPYTMDLMEQVALRVQELQEQLRVVGEDTKAQLLGGVDEAWALLQGLQSRVVHHTGRFKELFHPYAESLVSGIGRHVQELHRSVAPHAPASPARLSRCVQVLSRKLTLKAKALHARIQQNLDQLREELSRAFAGTGTEEGAGPDPQMLSEEVRQRLQAFRQDTYLQIAAFTRAIDQETEEVQQQLAPPPPGHSAFAPEFQQTDSGKVLSKLQARLDDLWEDITHSLHDQGHSHLGDP
[1]; Student's t test p<0.001
  Triglyceride levels versus control mice: significantly lower
[1]; mean
  Triglycerides: 0.361 mg/mL
Apo CIII
  Apo CIII level versus control mice: approximately three times lower
Apo CIII; plasma, mean
  Apo CIII: 30.70 µg/mL
[2]
  Accumulation of triglyceride-rich particles after a lipid-rich diet: not observed
Total lipase
  Total lipase activity versus controls: significant increase
HL
  HL activity versus controls: significant increase
LpL
  LpL activity versus controls: significant increase
